# Results taken from publication PMC7762956 (The Journal of Biological Chemistry, 2020).
# B1: murine Ifit1 with a C-terminal His8 tag (natural protein)
# chain: MGENADGDQVMENLLQLRCHFTWKLLFENNDIPDLEVRISEQVQFLDIKNPLGMHNLLAYVRHLKGQQDEALQSLKEAEALIQSEQLSKRSLATWGNCAWLHYHRGSLAEAQIYLDKVEKVCKEFSSPFRYRLECAEMDCEEGWALLKCGGGNYKQAMACFAKALKVEPENPEYNTGYAVVAYRQDLDDNFISLEPLRKAVRLNPEDPYLKVLLALKLQDLGEHVEAEAHIEEALSSTSCQSYVIRYAAKYFRRKHRVDKALHLLNRALQASPSSGYLHYQKGLCYKQQISQLRTSRNRQPRRQDNVQELAQQAIHEFQETLKLRPTFEMAYVCMAEVQAEIHQYEEAERNFQKALNNKTLVAHIEQDIHLRYGRFLQFHKQSEDKAITLYLKGLKVEEKSFAWRKLLTALEKVAERRVCQNVHLVESTSLLGLVYKLKGQEKNALFYYEKALRLTGEMNPAF
# B2: murine Ifit1b with a C-terminal His8 tag (natural protein)
# chain: MEQLLSPSNMSEESHKSHIHDSLDELRCHFTWELDIKDKHIHDLEIKISETEFRDPIYSIGMHNLLAYVRHLKGQQDEALQSLKEAEALIQSEQLSKRSLATWGNCAWLHYHRGSLAEAQVYLDKVEKVCKEFSSPFRYRLECAEMDCEEGWALRKCGSQNYTRAMACFERALKVEPENPEYNAGYADVAYHLDYYDGNSLQPLKKAVSVKPEDPYLKVLLALKLQDLRKTDEAEKHIKEATLTISSQNNIFGYVAKFYRRKGCVEEALGFLKKALETKPSSPYLHFQIGLCHKTQFFQMKKATSRENRKRADQSCHLAICHFKKTLELKPTYDRAYIDLAEVYAKNHQQKEAEDNFQEVLSMSNLGDYMQQEIHFRYGNFQQYYKKSEEAAITHYLKGLKIEVTSHYRDKLLKALEELAEGRKEDHVLESLSLLGLVCRLRGDTSEAMSCYEKALRLTGAVNPEF
# Biological target: the molecule itself
# Assay: SEC
row,Protein,stoichiometry N
1,B1,2
2,B2,2
